This is an account of results in publication PMC12330381, “Evolutionarily diverse caveolins share a common structural framework built around amphipathic disks” (The Journal of Cell Biology, 2025).

For data set [1], the target named is S. rosetta caveolin (Salpingoeca rosetta). Briefly: cryo-EM structure; single-particle cryo-EM of the complex purified in C12M detergent; C11 symmetry applied in the final refinement.
Data set [2] concerns the molecule itself. Described as above.

What is called stoichiometry N is a count of units in the complex or per binding partner. For S. rosetta caveolin (natural protein), in data set [1], the stoichiometry N was found to be 11.

B1: S. purpuratus caveolin (natural protein, Strongylocentrotus purpuratus, UniProt A0A7M7T4C2 1-159, looked up)
chain: MELIHPENGPSGTVQVPLIQGVDQSDTEDVYRLSPHVTTGFADTFKESNDIMGFSFMEKVNGAIYKYTHFAFYAVLNLLLAPFIAFSFGLSFAVMHFAVVWFVQPIMKLYYVWLRVFNLAYEPALRLVCDPIHRSIALILSGIKGQFKMNSSDVKTSQV
notes: caveolin of Strongylocentrotus purpuratus (purple sea urchin), UniProt A0A7M7T4C2, entire polypeptide (residues 1-159); residues 29-152 modelled in the cryo-EM map; Cloned between NdeI and XhoI of pET20b(+) with a reverse primer without stop codon, so the His tag is probably C-terminal (surmised); also called Strongylocentrotus purpuratus caveolin; Type I-CAV; source: E. coli BL21, purified from …
On to B1, for which the “stoichiometry N” value in data set [2] worked out at 11.
